This is an account of results in US20080050387A1 (published 2008).

The target in assay [1] is T1, testicular receptor 4 (TR4) (Homo sapiens (Human), UniProt P49116 1-596, limits assumed).
T1 construct: hSos fusion (pSos-TR4) in yeast; also called pSos-TR4
T1 sequence: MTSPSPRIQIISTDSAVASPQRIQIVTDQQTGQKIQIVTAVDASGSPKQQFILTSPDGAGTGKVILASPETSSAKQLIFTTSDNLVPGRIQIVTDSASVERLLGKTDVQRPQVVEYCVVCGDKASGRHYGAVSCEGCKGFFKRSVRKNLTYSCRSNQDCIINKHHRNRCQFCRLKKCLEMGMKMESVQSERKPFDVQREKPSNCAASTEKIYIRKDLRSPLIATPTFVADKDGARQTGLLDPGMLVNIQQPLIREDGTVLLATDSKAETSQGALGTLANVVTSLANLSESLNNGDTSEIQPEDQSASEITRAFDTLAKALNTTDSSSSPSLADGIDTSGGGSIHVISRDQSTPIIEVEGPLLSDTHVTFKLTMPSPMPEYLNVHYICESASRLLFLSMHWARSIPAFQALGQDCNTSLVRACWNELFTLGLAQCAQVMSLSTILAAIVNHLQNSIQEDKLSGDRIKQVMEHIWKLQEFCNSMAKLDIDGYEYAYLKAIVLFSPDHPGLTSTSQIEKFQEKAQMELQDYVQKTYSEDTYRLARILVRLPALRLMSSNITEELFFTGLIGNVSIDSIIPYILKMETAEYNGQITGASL
As to the kind of experiment: CytoTrap Sos yeast two-hybrid, growth of cdc25H on SD/Gal(-LU) at 37° C.
Procedure: (§1) The bait and library constructs were co-transformed into yeast strain cdc25H. […] Only the clones that grow out on SD/Gal (−LU) plates but not on SD/Glu (−LU) plates at 37° C. are interaction positive ones.

The next assay addresses T2, ARA70 (UniProt Q13772 1-614, limits assumed).
T2 construct: also called pSos-ARA70; pSos-APA70
T2 sequence (looked up): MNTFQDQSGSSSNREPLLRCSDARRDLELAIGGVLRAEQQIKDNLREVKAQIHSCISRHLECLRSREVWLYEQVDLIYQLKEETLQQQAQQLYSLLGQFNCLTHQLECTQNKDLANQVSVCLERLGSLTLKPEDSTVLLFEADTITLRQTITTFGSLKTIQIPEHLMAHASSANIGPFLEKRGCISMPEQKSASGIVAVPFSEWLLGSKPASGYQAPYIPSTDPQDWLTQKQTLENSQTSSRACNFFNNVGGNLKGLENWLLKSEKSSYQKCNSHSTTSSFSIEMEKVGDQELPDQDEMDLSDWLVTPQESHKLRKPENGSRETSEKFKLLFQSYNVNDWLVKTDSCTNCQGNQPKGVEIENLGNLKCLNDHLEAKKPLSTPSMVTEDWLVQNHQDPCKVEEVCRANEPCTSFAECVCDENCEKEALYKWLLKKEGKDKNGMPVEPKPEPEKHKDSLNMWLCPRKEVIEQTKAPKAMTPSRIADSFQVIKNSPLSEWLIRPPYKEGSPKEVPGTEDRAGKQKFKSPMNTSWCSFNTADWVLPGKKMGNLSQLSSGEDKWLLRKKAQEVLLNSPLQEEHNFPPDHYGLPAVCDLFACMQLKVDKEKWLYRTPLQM
The assay is described as above.

Procedure for ARA70: as §1

B1: ARA67 clone of the CytoTrap screen, amino acids 20-585 of PAT1 (pMyr-ARA67) (other)
chain: AVVDNYIRSRRDIRSLPENIQFDVYYKLYQQGRLCQLGSEFCELEVFAKVLRALDKRHLLHHCFQALMDHGVKVASVLAYSFSRRCSYIAESDAAVKEKAIQVGFVLGGFLSDAGWYSDAEKVFLSCLQLCTLHDEMLHWFRAVECCVRLLHVRNGNCKYHLGEETFKLAQTYMDKLSKHGQQANKAALYGELCALLFAKSHYDEAYKWCIEAMKEITAGLPVKVVVDVLRQASKACVVKREFKKAEQLIKHAVYLARDHFGSKHPKYSDTLLDYGFYLLNVDNICQSVAIYQAALDIRQSVFGGKNIHVATAHEDLAYSSYVHQYSSGKFDNALFHAERAIGIITHILPEDHLLLASSKRVKALILEEIAIDCHNKETEQRLLQEAHDLHLSSLQLAKKAFGEFNVQTAKHYGNLGRLYQSMRKFKEAEEMHIKAIQIKEQLLGQEDYEVALSVGHLASLYNYDMNQYENAEKLYLRSIAIGKKLFGEGYSGLEYDYRGLIKLYNSIGNYEKVFEYHNVLSNWNRLRDRQYSVTDALEDVSTSPQSTEEVVQSFLISQNVEGPSC
notes: The clone matched the DNA encoding aa 20-585 of PAT1 at 99.6% identity; also called pMyr-ARA67/PAT1
For B1, the binding result (in assay [1]; with ARA70) was “no binding” in each case.
